Data from patent US7147850.

What was measured:
[1] = biological target: MUC-1 glycoprotein on untreated ZR-75-1 cells (glycosylated MUC-1) (human) (UniProt P15941); assay: FACScan on untreated ZR-75-1 cells (PBS control 6.23)
[2] = biological target: MUC-1 on ZR-75-1 cells deglycosylated with 4 mM Phenyl-N-alpha-D-Glucosamide (unglycosylated MUC-1) (human) (UniProt P15941); assay: FACScan on deglycosylated ZR-75-1 cells (PBS control 6.76)
MUC-1 on ZR-75-1 cells deglycosylated with 4 mM Phenyl-N-alpha-D-Glucosamide (unglycosylated MUC-1) (human), sequence (P15941 24-1255, form in doubt): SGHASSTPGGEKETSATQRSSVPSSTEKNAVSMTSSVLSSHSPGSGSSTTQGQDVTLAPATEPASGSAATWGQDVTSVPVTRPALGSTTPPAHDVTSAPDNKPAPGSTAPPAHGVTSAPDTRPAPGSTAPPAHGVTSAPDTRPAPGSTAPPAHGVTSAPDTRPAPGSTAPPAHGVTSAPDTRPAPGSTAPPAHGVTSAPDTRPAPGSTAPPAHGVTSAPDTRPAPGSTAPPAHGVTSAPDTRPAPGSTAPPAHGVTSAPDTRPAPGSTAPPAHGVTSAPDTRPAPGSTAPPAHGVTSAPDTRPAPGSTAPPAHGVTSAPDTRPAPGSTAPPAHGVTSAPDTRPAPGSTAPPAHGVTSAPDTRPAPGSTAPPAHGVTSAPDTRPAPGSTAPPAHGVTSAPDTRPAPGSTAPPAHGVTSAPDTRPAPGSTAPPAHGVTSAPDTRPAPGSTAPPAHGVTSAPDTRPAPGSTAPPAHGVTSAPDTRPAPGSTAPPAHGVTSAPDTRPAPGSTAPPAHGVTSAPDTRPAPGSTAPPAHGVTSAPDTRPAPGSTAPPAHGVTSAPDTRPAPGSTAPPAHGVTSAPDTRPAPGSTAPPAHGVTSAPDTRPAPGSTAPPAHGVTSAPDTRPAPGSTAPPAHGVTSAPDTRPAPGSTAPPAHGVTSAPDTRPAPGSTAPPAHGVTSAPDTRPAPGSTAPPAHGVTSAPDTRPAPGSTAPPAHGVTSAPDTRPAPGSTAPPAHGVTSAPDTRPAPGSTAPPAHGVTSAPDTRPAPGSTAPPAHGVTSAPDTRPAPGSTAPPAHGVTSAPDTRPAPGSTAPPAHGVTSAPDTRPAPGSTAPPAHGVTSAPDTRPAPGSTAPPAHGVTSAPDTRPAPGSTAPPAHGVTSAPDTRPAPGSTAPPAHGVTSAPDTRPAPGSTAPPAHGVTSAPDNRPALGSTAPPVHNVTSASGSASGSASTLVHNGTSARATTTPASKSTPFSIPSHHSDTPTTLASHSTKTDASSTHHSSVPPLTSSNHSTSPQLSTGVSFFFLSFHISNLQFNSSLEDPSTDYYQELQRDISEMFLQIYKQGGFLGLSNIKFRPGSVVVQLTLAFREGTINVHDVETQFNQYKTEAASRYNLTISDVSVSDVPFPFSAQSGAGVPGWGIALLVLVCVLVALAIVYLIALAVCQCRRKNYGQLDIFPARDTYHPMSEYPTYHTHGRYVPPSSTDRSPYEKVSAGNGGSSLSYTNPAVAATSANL

MUC-1 glycoprotein on untreated ZR-75-1 cells (glycosylated MUC-1) (human), sequence (P15941 24-1255): as the sequence (P15941 24-1255, form in doubt) above

Substance: SM3 (antibody)
- % positive cells [1]: 7.49%
- % positive cells [2]: 41.3%
